Test results published in ChEMBL document CHEMBL3526031, “Mechanistic studies on the absorption and disposition of scutellarin in humans: selective OATP2B1-mediated hepatic uptake is a likely key determinant for its unique pharmacokinetic characteristics” (Drug Metab Dispos, 2012).

Tests used:
Homo sapiens = test: Drug level in human assessed as retention time treated with 40 mg, po of scutellarin measured up to 20 hrs by mass defect filter chromatogram analysis; type: ADME, organism-based
[1] = substrate: O=c1cc(-c2ccc(O)cc2)oc2cc(O)c(O)c(O)c12; test: Drug metabolism assessed as human recombinant UGT1A8-mediated formation of scutellarein-7-O-glucuronide after 25 mins by HPLC/UV analysis; type: ADME
[2] = substrate: O=c1cc(-c2ccc(O)cc2)oc2cc(O)c(O)c(O)c12; test: Drug metabolism assessed as human recombinant UGT1A7-mediated formation of scutellarein-7-O-glucuronide after 25 mins by HPLC/UV analysis; type: ADME
[3] = substrate: O=c1cc(-c2ccc(O)cc2)oc2cc(O)c(O)c(O)c12; test: Drug metabolism assessed as human recombinant UGT1A10-mediated formation of scutellarein-7-O-glucuronide after 25 mins by HPLC/UV analysis; type: ADME
[4] = substrate: O=c1cc(-c2ccc(O)cc2)oc2cc(O)c(O)c(O)c12; test: Drug metabolism assessed as human recombinant UGT1A10-mediated formation of scutellarein-6-O-glucuronide after 25 mins by HPLC/UV analysis; type: ADME
[5] = substrate: O=c1cc(-c2ccc(O)cc2)oc2cc(O)c(O)c(O)c12; test: Drug metabolism assessed as human recombinant UGT1A9-mediated formation of scutellarein-6-O-glucuronide after 25 mins by HPLC/UV analysis; type: ADME
[6] = substrate: O=c1cc(-c2ccc(O)cc2)oc2cc(O)c(O)c(O)c12; test: Drug metabolism assessed as human recombinant UGT1A9-mediated formation of scutellarein-7-O-glucuronide after 25 mins by HPLC/UV analysis; type: ADME
[7] = substrate: O=c1cc(-c2ccc(O)cc2)oc2cc(O)c(O)c(O)c12; test: Drug metabolism assessed as human recombinant UGT2B7-mediated formation of scutellarein-6-O-glucuronide after 25 mins by HPLC/UV analysis; type: ADME
[8] = substrate: O=c1cc(-c2ccc(O)cc2)oc2cc(O)c(O)c(O)c12; test: Drug metabolism assessed as human recombinant UGT1A3-mediated formation of scutellarein-7-O-glucuronide after 25 mins by HPLC/UV analysis; type: ADME
[9] = substrate: O=C(O)[C@H]1O[C@@H](Oc2c(O)cc3oc(-c4ccc(O)cc4)cc(=O)c3c2O)[C@H](O)[C@@H](O)[C@@H]1O; test: Drug uptake assessed as OATP2B1 (unknown origin)-mediated drug transport expressed in HEK293 cells after 7 mins by LC-MS/MS analysis; type: ADME, cell-based, Homo sapiens
[10] = substrate: O=c1cc(-c2ccc(O)cc2)oc2cc(O)c(O)c(O)c12; test: Drug metabolism assessed as human recombinant UGT1A6-mediated formation of scutellarein-7-O-glucuronide after 25 mins by HPLC/UV analysis; type: ADME

O=C(O)[C@H]1O[C@@H](Oc2cc3oc(-c4ccc(O)cc4)cc(=O)c3c(O)c2O[C@@H]2O[C@H](C(=O)O)[C@@H](O)[C@H](O)[C@H]2O)[C@H](O)[C@@H](O)[C@@H]1O
Retention_time (Homo sapiens): 6.02 min

B1: UDP-glucuronosyltransferase 1A8 (Homo sapiens) (protein)
chain: MARTGWTSPIPLCVSLLLTCGFAEAGKLLVVPMDGSHWFTMQSVVEKLILRGHEVVVVMPEVSWQLGKSLNCTVKTYSTSYTLEDLDREFMDFADAQWKAQVRSLFSLFLSSSNGFFNLFFSHCRSLFNDRKLVEYLKESSFDAVFLDPFDACGLIVAKYFSLPSVVFARGIACHYLEEGAQCPAPLSYVPRILLGFSDAMTFKERVRNHIMHLEEHLFCQYFSKNALEIASEILQTPVTAYDLYSHTSIWLLRTDFVLDYPKPVMPNMIFIGGINCHQGKPLPMEFEAYINASGEHGIVVFSLGSMVSEIPEKKAMAIADALGKIPQTVLWRYTGTRPSNLANNTILVKWLPQNDLLGHPMTRAFITHAGSHGVYESICNGVPMVMMPLFGDQMDNAKRMETKGAGVTLNVLEMTSEDLENALKAVINDKSYKENIMRLSSLHKDRPVEPLDLAVFWVEFVMRHKGAPHLRPAAHDLTWYQYHSLDVIGFLLAVVLTVAFITFKCCAYGYRKCLGKKGRVKKAHKSKTH
Km [1]: 19 µM
Vmax [1]: 0.000673 µmol/min/mg
Vmax/Km [1]: 35.4 µL/min/mg

B2: UDP-glucuronosyltransferase 1A7 (Homo sapiens) (protein)
chain: MARAGWTGLLPLYVCLLLTCGFAKAGKLLVVPMDGSHWFTMQSVVEKLILRGHEVVVVMPEVSWQLGRSLNCTVKTYSTSYTLEDQDREFMVFADARWTAPLRSAFSLLTSSSNGIFDLFFSNCRSLFNDRKLVEYLKESCFDAVFLDPFDACGLIVAKYFSLPSVVFARGIFCHYLEEGAQCPAPLSYVPRLLLGFSDAMTFKERVWNHIMHLEEHLFCPYFFKNVLEIASEILQTPVTAYDLYSHTSIWLLRTDFVLEYPKPVMPNMIFIGGINCHQGKPVPMEFEAYINASGEHGIVVFSLGSMVSEIPEKKAMAIADALGKIPQTVLWRYTGTRPSNLANNTILVKWLPQNDLLGHPMTRAFITHAGSHGVYESICNGVPMVMMPLFGDQMDNAKRMETKGAGVTLNVLEMTSEDLENALKAVINDKSYKENIMRLSSLHKDRPVEPLDLAVFWVEFVMRHKGAPHLRPAAHDLTWYQYHSLDVIGFLLAVVLTVAFITFKCCAYGYRKCLGKKGRVKKAHKSKTH
Km [2]: 33.3 µM
Vmax [2]: 0.000795 µmol/min/mg
Vmax/Km [2]: 23.9 µL/min/mg

B3: UDP-glucuronosyltransferase 1A10 (Homo sapiens) (protein)
chain: MARAGWTSPVPLCVCLLLTCGFAEAGKLLVVPMDGSHWFTMQSVVEKLILRGHEVVVVMPEVSWQLERSLNCTVKTYSTSYTLEDQNREFMVFAHAQWKAQAQSIFSLLMSSSSGFLDLFFSHCRSLFNDRKLVEYLKESSFDAVFLDPFDTCGLIVAKYFSLPSVVFTRGIFCHHLEEGAQCPAPLSYVPNDLLGFSDAMTFKERVWNHIVHLEDHLFCQYLFRNALEIASEILQTPVTAYDLYSHTSIWLLRTDFVLDYPKPVMPNMIFIGGINCHQGKPLPMEFEAYINASGEHGIVVFSLGSMVSEIPEKKAMAIADALGKIPQTVLWRYTGTRPSNLANNTILVKWLPQNDLLGHPMTRAFITHAGSHGVYESICNGVPMVMMPLFGDQMDNAKRMETKGAGVTLNVLEMTSEDLENALKAVINDKSYKENIMRLSSLHKDRPVEPLDLAVFWVEFVMRHKGAPHLRPAAHDLTWYQYHSLDVIGFLLAVVLTVAFITFKCCAYGYRKCLGKKGRVKKAHKSKTH
Km [3]: 5.68 µM
Vmax [3]: 0.000318 µmol/min/mg
Vmax/Km [3]: 55.9 µL/min/mg
Km [4]: 2.74 µM
Vmax [4]: 3.8e-05 µmol/min/mg
Vmax/Km [4]: 13.7 µL/min/mg

B4: UDP-glucuronosyltransferase 1A9 (Homo sapiens) (protein)
chain: MACTGWTSPLPLCVCLLLTCGFAEAGKLLVVPMDGSHWFTMRSVVEKLILRGHEVVVVMPEVSWQLGRSLNCTVKTYSTSYTLEDLDREFKAFAHAQWKAQVRSIYSLLMGSYNDIFDLFFSNCRSLFKDKKLVEYLKESSFDAVFLDPFDNCGLIVAKYFSLPSVVFARGILCHYLEEGAQCPAPLSYVPRILLGFSDAMTFKERVRNHIMHLEEHLLCHRFFKNALEIASEILQTPVTEYDLYSHTSIWLLRTDFVLDYPKPVMPNMIFIGGINCHQGKPLPMEFEAYINASGEHGIVVFSLGSMVSEIPEKKAMAIADALGKIPQTVLWRYTGTRPSNLANNTILVKWLPQNDLLGHPMTRAFITHAGSHGVYESICNGVPMVMMPLFGDQMDNAKRMETKGAGVTLNVLEMTSEDLENALKAVINDKSYKENIMRLSSLHKDRPVEPLDLAVFWVEFVMRHKGAPHLRPAAHDLTWYQYHSLDVIGFLLAVVLTVAFITFKCCAYGYRKCLGKKGRVKKAHKSKTH
Km [5]: 10.9 µM
Vmax [5]: 0.00167 µmol/min/mg
Vmax/Km [5]: 153 µL/min/mg
Km [6]: 5.49 µM
Vmax [6]: 0.00463 µmol/min/mg
Vmax/Km [6]: 843 µL/min/mg

B5: UDP-glucuronosyltransferase 2B7 (Homo sapiens) (protein)
chain: MSVKWTSVILLIQLSFCFSSGNCGKVLVWAAEYSHWMNIKTILDELIQRGHEVTVLASSASILFDPNNSSALKIEIYPTSLTKTELENFIMQQIKRWSDLPKDTFWLYFSQVQEIMSIFGDITRKFCKDVVSNKKFMKKVQESRFDVIFADAIFPCSELLAELFNIPFVYSLSFSPGYTFEKHSGGFIFPPSYVPVVMSELTDQMTFMERVKNMIYVLYFDFWFEIFDMKKWDQFYSEVLGRPTTLSETMGKADVWLIRNSWNFQFPYPLLPNVDFVGGLHCKPAKPLPKEMEDFVQSSGENGVVVFSLGSMVSNMTEERANVIASALAQIPQKVLWRFDGNKPDTLGLNTRLYKWIPQNDLLGHPKTRAFITHGGANGIYEAIYHGIPMVGIPLFADQPDNIAHMKARGAAVRVDFNTMSSTDLLNALKRVINDPSYKENVMKLSRIQHDQPVKPLDRAVFWIEFVMRHKGAKHLRVAAHDLTWFQYHSLDVIGFLLVCVATVIFIVTKCCLFCFWKFARKAKKGKND
Km [7]: 11.5 µM
Vmax [7]: 8.9e-05 µmol/min/mg
Vmax/Km [7]: 7.74 µL/min/mg

B6: UDP-glucuronosyltransferase 1A3 (Homo sapiens) (protein)
chain: MATGLQVPLPWLATGLLLLLSVQPWAESGKVLVVPIDGSHWLSMREVLRELHARGHQAVVLTPEVNMHIKEENFFTLTTYAISWTQDEFDRHVLGHTQLYFETEHFLKKFFRSMAMLNNMSLVYHRSCVELLHNEALIRHLNATSFDVVLTDPVNLCAAVLAKYLSIPTVFFLRNIPCDLDFKGTQCPNPSSYIPRLLTTNSDHMTFMQRVKNMLYPLALSYICHAFSAPYASLASELFQREVSVVDILSHASVWLFRGDFVMDYPRPIMPNMVFIGGINCANRKPLSQEFEAYINASGEHGIVVFSLGSMVSEIPEKKAMAIADALGKIPQTVLWRYTGTRPSNLANNTILVKWLPQNDLLGHPMTRAFITHAGSHGVYESICNGVPMVMMPLFGDQMDNAKRMETKGAGVTLNVLEMTSEDLENALKAVINDKSYKENIMRLSSLHKDRPVEPLDLAVFWVEFVMRHKGAPHLRPAAHDLTWYQYHSLDVIGFLLAVVLTVAFITFKCCAYGYRKCLGKKGRVKKAHKSKTH
Km [8]: 7.34 µM
Vmax [8]: 0.00178 µmol/min/mg
Vmax/Km [8]: 243 µL/min/mg

B7: Solute carrier organic anion transporter family member 2B1 (Homo sapiens) (protein)
chain: MGPRIGPAGEVPQVPDKETKATMGTENTPGGKASPDPQDVRPSVFHNIKLFVLCHSLLQLAQLMISGYLKSSISTVEKRFGLSSQTSGLLASFNEVGNTALIVFVSYFGSRVHRPRMIGYGAILVALAGLLMTLPHFISEPYRYDNTSPEDMPQDFKASLCLPTTSAPASAPSNGNCSSYTETQHLSVVGIMFVAQTLLGVGGVPIQPFGISYIDDFAHNSNSPLYLGILFAVTMMGPGLAFGLGSLMLRLYVDINQMPEGGISLTIKDPRWVGAWWLGFLIAAGAVALAAIPYFFFPKEMPKEKRELQFRRKVLAVTDSPARKGKDSPSKQSPGESTKKQDGLVQIAPNLTVIQFIKVFPRVLLQTLRHPIFLLVVLSQVCLSSMAAGMATFLPKFLERQFSITASYANLLIGCLSFPSVIVGIVVGGVLVKRLHLGPVGCGALCLLGMLLCLFFSLPLFFIGCSSHQIAGITHQTSAHPGLELSPSCMEACSCPLDGFNPVCDPSTRVEYITPCHAGCSSWVVQDALDNSQVFYTNCSCVVEGNPVLAGSCDSTCSHLVVPFLLLVSLGSALACLTHTPSFMLILRGVKKEDKTLAVGIQFMFLRILAWMPSPVIHGSAIDTTCVHWALSCGRRAVCRYYNNDLLRNRFIGLQFFFKTGSVICFALVLAVLRQQDKEARTKESRSSPAVEQQLLVSGPGKKPEDSRV
Km [9]: 1.77 µM

B8: UDP-glucuronosyltransferase 1A6 (Homo sapiens) (protein)
chain: MACLLRSFQRISAGVFFLALWGMVVGDKLLVVPQDGSHWLSMKDIVEVLSDRGHEIVVVVPEVNLLLKESKYYTRKIYPVPYDQEELKNRYQSFGNNHFAERSFLTAPQTEYRNNMIVIGLYFINCQSLLQDRDTLNFFKESKFDALFTDPALPCGVILAEYLGLPSVYLFRGFPCSLEHTFSRSPDPVSYIPRCYTKFSDHMTFSQRVANFLVNLLEPYLFYCLFSKYEELASAVLKRDVDIITLYQKVSVWLLRYDFVLEYPRPVMPNMVFIGGINCKKRKDLSQEFEAYINASGEHGIVVFSLGSMVSEIPEKKAMAIADALGKIPQTVLWRYTGTRPSNLANNTILVKWLPQNDLLGHPMTRAFITHAGSHGVYESICNGVPMVMMPLFGDQMDNAKRMETKGAGVTLNVLEMTSEDLENALKAVINDKSYKENIMRLSSLHKDRPVEPLDLAVFWVEFVMRHKGAPHLRPAAHDLTWYQYHSLDVIGFLLAVVLTVAFITFKCCAYGYRKCLGKKGRVKKAHKSKTH
Km [10]: 27 µM
Vmax [10]: 0.00167 µmol/min/mg
Vmax/Km [10]: 62 µL/min/mg
